Six molecules from paper PMC9684461, “RNA-controlled nucleocytoplasmic shuttling of mRNA decay factors regulates mRNA synthesis and a novel mRNA decay pathway” (Nature Communications, 2021) can be followed below.

B5: recombinant 6xHis-tagged Kap120 (natural protein, S. cerevisiae, UniProt Q02932 1-1032, looked up)
chain: MASSLNELNLVQVLEQASNPQHIRSDVQKLAEQQLRQWETQAGFHYLLQSIYLNLSNSLQIRWLAVIQFKNGVDKYWRSTRINAIPKDEKASIRGRLFEMIDEQNNQLCIQNAQASARIARLDFPVEWPTLFEDLENLLNDEIIRKDSVKIYNILMHINQIVKVLGTARIGRCRPAMQSKVPLILPLIVRIYLQSFEEWTTSSNLNYEDLSSLQVSYLALKVLRRIICEGYDRPQTDQSVCDFIKLSVSHFEMLISNHENFKKFDIYEKFIKCLGKLYFNLVTGSPANFILLPCSTQILITYTRLIFDKAPKVYRENSDVTGDFWEQTAIRGLLILKRVINFIHKKGAITLKARSDKLTIDASINKINTEFLNENLITRLVDTLMEWYLRLRPTELENWFMDPEEWINEQMATSYEYQIRPCAENVFQDLMNTFSELLVPYLLKKIENDASKLSNSLDDFLRKDAIYASFQLSASAVSEMVDFDRLLIQVFLPEATNTNISGDELRIIRRRVALIINEWSTVKCSEESKSLCYKLFTNFLTDEDDKVVLLTTVQTVRTMVDDWNFNKDTFQPFLTENVHLLLRKILPSVSLTETRLYVLNTLSDIIIQTKPLISRDLLVEILQIIPNLWEIATNNASEAILANALLRLLRNLVSSLGSQSHLTWDIAIPVVALACDPSSMQYQLLSEDGYELWGMLLQNFSSHDQEFDDKFVELVPFLKYGIETHTEILPTLLEIIKSYALILNPVDFFSNNTFQDIFKQMSKYLLKLREDSFQLVLEIWEILILSNESDYENLLLQKFYETGVLSALFDAIFLEEAPSSYLCSQIIQIIARISYVNPDALMTFLATYHDNLPTSNENARMPESIRKIVSKDQTYDSVVNKLLTGWIVCFRDIFDPKFKKVHILGISSLLRTGLVPILTEFSSIASLWIEMLEEINETNRGDCEKYHLNDIVTEQSIAFHPLTAEQLRYHQLCKNNDPVHNISLKDFISQSMEYLESHLGVERYQEFLKTINPSLLENLQMFLSIQPQEARP
notes: karyopherin (importin) Kap120 of S. cerevisiae; also called Kap120-6xHis; Kap120-His; source: E. coli, IPTG induced, purified (Ni-NTA)

Data set [1] has as its target B5. The data set can be described thus: pull-down; purified Kap120-6xHis mixed with purified Xrn1-FLAG (WT or mutant), 1 h at 4 °C in a rotator; complex captured on Ni-NTA, Western blotting; Xrn1-FLAG intensity normalized to Kap120. In general terms: A western blot detects proteins with antibodies after separation by electrophoresis.
For data set [2], the target named is T1, TAP-tagged Kap120 (S. cerevisiae, UniProt Q02932 1-1032).
T1 construct: karyopherin Kap120 of S. cerevisiae, TAP-tagged, expressed in yeast; also called Kap120-TAP; source: yeast, in extract, captured on IgG-sepharose
T1 sequence (looked up): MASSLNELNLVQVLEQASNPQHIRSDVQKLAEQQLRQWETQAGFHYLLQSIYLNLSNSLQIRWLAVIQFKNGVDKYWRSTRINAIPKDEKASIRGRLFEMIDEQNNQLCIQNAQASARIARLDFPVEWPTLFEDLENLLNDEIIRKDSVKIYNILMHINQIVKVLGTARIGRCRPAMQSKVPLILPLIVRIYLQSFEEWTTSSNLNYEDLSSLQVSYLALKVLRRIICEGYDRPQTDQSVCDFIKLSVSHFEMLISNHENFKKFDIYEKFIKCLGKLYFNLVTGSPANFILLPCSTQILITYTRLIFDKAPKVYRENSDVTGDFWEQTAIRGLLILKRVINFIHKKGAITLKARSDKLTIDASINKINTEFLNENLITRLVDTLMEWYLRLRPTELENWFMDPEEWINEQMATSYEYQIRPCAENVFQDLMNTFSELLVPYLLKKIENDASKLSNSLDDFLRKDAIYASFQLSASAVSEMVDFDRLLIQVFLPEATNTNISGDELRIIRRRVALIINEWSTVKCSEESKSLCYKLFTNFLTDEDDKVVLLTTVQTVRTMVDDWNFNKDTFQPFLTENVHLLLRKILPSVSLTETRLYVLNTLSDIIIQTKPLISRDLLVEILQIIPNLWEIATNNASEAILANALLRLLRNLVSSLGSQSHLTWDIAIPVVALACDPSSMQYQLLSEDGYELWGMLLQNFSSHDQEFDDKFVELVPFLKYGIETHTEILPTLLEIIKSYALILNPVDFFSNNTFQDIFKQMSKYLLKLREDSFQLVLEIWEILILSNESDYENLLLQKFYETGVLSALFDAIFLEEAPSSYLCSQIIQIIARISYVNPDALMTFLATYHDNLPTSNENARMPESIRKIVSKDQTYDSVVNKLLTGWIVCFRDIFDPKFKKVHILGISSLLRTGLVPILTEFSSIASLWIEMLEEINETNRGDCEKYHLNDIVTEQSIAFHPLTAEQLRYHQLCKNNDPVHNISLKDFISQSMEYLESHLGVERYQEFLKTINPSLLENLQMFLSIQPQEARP
Briefly: co-IP; TAP-tagged Kap120 affinity purified with IgG-sepharose from extract of optimally proliferating yeast (WT or Xrn1^ΔNLS1/2 cells); co-IPed proteins by Western blotting; signals normalized to Kap120. The conditions noted are these: partners not purified.

In data set [3] the target is Xrn1 WT (Saccharomyces cerevisiae, UniProt P22147 1-1528). The data set can be described thus: pull-down on FLAG beads, competition by Kap120; Kap120 prevents RNA binding dose-dependently; EMSA: 50 mM Tris-HCl pH 7.4, 150 mM NaCl, 2 mM DTT, 1 mM EDTA, 30 min at room temperature, 6% native PAGE in 0.5x TBE; pull-downs with RNA: 2 mM EDTA, 1 h at 4. The note with it: protein: native; tags: FLAG; label: Cy3. For orientation: Mobility shift assays separate free from complexed probe on a gel.

The target of data set [4] is B5. Briefly: pull-down; GFP-tagged Tail held on GFP-Trap resin in a small column, washed 3 times; purified Kap120-His added, 1 h at 4 °C; eluted with 2X LSB at 95 °C. The conditions noted are these: both partners purified.
For data set [5], the target named is T2, FLAG-tagged Xrn1 (wild type) (S. cerevisiae, UniProt P22147 1-1528).
T2 construct: 5' to 3' exonuclease Xrn1 (alias Kem1) of S. cerevisiae, called full-length Xrn1 for the FLAG-tagged purified protein; also called Xrn1-FLAG; Xrn1^WT; source: genomically FLAG-tagged strain, in lysate, for the IP with mass spectrometry
The data set can be described thus: pull-down; purified Kap120-6xHis mixed with purified Xrn1-FLAG (WT or mutant), 1 h at 4 °C in a rotator; complex captured on Ni-NTA, Western blotting; Xrn1-FLAG intensity normalized to Kap120. The conditions noted are these: both partners purified.

T2 sequence (P22147 whole entry): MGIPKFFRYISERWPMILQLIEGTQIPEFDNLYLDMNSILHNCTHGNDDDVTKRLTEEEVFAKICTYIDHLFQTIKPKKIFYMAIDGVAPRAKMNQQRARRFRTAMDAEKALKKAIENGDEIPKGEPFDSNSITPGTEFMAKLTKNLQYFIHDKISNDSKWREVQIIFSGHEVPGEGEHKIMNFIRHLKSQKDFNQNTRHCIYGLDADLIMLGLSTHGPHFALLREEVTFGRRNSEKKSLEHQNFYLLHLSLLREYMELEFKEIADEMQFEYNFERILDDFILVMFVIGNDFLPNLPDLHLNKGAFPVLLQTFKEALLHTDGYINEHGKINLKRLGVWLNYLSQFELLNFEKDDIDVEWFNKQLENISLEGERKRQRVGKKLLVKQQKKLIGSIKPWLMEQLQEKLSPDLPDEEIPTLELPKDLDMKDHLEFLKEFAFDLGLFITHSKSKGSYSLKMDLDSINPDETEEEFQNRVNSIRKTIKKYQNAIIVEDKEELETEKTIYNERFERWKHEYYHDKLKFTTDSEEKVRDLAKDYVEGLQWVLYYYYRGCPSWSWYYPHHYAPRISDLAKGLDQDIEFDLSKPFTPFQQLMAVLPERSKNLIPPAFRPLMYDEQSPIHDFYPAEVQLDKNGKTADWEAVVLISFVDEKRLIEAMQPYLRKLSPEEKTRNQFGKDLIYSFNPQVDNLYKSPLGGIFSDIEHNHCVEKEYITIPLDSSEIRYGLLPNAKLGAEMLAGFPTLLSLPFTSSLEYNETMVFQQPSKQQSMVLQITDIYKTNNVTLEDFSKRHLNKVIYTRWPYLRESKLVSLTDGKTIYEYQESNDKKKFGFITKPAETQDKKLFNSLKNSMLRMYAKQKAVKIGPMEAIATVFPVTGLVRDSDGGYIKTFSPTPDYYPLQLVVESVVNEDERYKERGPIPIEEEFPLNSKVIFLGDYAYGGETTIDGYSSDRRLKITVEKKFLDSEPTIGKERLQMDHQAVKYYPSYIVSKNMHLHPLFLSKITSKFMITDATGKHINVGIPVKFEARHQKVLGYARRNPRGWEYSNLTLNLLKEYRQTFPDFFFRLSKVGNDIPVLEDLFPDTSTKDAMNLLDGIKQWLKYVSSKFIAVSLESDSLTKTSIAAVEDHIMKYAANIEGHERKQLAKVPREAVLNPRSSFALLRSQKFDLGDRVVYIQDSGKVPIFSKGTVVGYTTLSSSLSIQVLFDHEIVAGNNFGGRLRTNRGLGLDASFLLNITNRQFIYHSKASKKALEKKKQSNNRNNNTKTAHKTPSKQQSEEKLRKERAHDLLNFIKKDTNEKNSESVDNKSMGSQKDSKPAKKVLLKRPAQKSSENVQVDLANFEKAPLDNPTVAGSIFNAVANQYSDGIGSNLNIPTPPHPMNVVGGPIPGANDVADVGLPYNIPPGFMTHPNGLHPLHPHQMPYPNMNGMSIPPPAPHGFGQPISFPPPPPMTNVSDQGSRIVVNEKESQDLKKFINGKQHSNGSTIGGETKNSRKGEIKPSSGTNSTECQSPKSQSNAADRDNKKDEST
Sequence of Xrn1 WT (P22147 whole entry): as above

Take “FLAG-tagged Xrn1^ΔNLS1/2 (from UniProt P22147 1-1528) (enzyme)”: the fold weaker than Xrn1^WT-Kap120 in data set [1] worked out at 4.5 fold.

B1: Dhh1 (natural protein, S. cerevisiae (endogenous in yeast), UniProt P39517 1-506, looked up)
chain: MGSINNNFNTNNNSNTDLDRDWKTALNIPKKDTRPQTDDVLNTKGNTFEDFYLKRELLMGIFEAGFEKPSPIQEEAIPVAITGRDILARAKNGTGKTAAFVIPTLEKVKPKLNKIQALIMVPTRELALQTSQVVRTLGKHCGISCMVTTGGTNLRDDILRLNETVHILVGTPGRVLDLASRKVADLSDCSLFIMDEADKMLSRDFKTIIEQILSFLPPTHQSLLFSATFPLTVKEFMVKHLHKPYEINLMEELTLKGITQYYAFVEERQKLHCLNTLFSKLQINQAIIFCNSTNRVELLAKKITDLGYSCYYSHARMKQQERNKVFHEFRQGKVRTLVCSDLLTRGIDIQAVNVVINFDFPKTAETYLHRIGRSGRFGHLGLAINLINWNDRFNLYKIEQELGTEIAAIPATIDKSLYVAENDETVPVPFPIEQQSYHQQAIPQQQLPSQQQFAIPPQQHHPQFMVPPSHQQQQAYPPPQMPSQQGYPPQQEHFMAMPPGQSQPQY
notes: mRNA decay factor Dhh1 of S. cerevisiae, detected with anti-Dhh1 antibodies; source: endogenous, yeast extract
Regarding B1, in data set [2], the “fold reduction of the co-IP in Xrn1^ΔNLS1/2 cells against WT cells” value is roughly 5 fold.

B2: Cy3-labeled 40 b RNA (ssRNA)
RNA: AUGUACAGUCCGACGAACACGGAGUCGACCCGCAACGCGA
Take B2: in data set [3], the binding result was “binds”.

B3: GFP-tagged Tail of Xrn1 (domain or fragment, S. cerevisiae, UniProt P22147 351-521, looked up)
chain: EKDDIDVEWFNKQLENISLEGERKRQRVGKKLLVKQQKKLIGSIKPWLMEQLQEKLSPDLPDEEIPTLELPKDLDMKDHLEFLKEFAFDLGLFITHSKSKGSYSLKMDLDSINPDETEEEFQNRVNSIRKTIKKYQNAIIVEDKEELETEKTIYNERFERWKHEYYHDKLK
notes: holds NLS1; also called Tail-GFP; linker domain; source: yeast, expressed under ADH1 promoter and terminator; pulled down with GFP-Trap resin and washed
For B3, the binding result in data set [4] was “binds”.

B4: Pat1 (natural protein, S. cerevisiae (endogenous in yeast), UniProt P25644 1-796, looked up)
chain: MSFFGLENSGNARDGPLDFEESYKGYGEHELEENDYLNDETFGDNVQVGTDFDFGNPHSSGSSGNAIGGNGVGATARSYVAATAEGISGPRTDGTAAAGPLDLKPMESLWSTAPPPAMAPSPQSTMAPAPAPQQMAPLQPILSMQDLERQQRQMQQQFMNFHAMGHPQGLPQGPPQQQFPMQPASGQPGPSQFAPPPPPPGVNVNMNQMPMGPVQVPVQASPSPIGMSNTPSPGPVVGATKMPLQSGRRSKRDLSPEEQRRLQIRHAKVEKILKYSGLMTPRDKDFITRYQLSQIVTEDPYNEDFYFQVYKIIQRGGITSESNKGLIARAYLEHSGHRLGGRYKRTDIALQRMQSQVEKAVTVAKERPSKLKDQQAAAGNSSQDNKQANTVLGKISSTLNSKNPRRQLQIPRQQPSDPDALKDVTDSLTNVDLASSGSSSTGSSAAAVASKQRRRSSYAFNNGNGATNLNKSGGKKFILELIETVYEEILDLEANLRNGQQTDSTAMWEALHIDDSSYDVNPFISMLSFDKGIKIMPRIFNFLDKQQKLKILQKIFNELSHLQIIILSSYKTTPKPTLTQLKKVDLFQMIILKIIVSFLSNNSNFIEIMGLLLQLIRNNNVSFLTTSKIGLNLITILISRAALIKQDSSRSNILSSPEISTWNEIYDKLFTSLESKIQLIFPPREYNDHIMRLQNDKFMDEAYIWQFLASLALSGKLNHQRIIIDEVRDEIFATINEAETLQKKEKELSVLPQRSQELDTELKSIIYNKEKLYQDLNLFLNVMGLVYRDGEISELK
notes: mRNA decay factor Pat1 of S. cerevisiae, detected with anti-Pat1 antibodies; source: endogenous, yeast extract
Turning to B4, the “fold reduction of the co-IP in Xrn1^ΔNLS1/2 cells against WT cells” value in data set [2] was roughly 5 fold.

Consider B5, for which the binding result in data set [5] was “binds”.
